Series [1] concerns the target T1, Flag-SA1 WT (UniProt Q8WVM7).
T1 sequence: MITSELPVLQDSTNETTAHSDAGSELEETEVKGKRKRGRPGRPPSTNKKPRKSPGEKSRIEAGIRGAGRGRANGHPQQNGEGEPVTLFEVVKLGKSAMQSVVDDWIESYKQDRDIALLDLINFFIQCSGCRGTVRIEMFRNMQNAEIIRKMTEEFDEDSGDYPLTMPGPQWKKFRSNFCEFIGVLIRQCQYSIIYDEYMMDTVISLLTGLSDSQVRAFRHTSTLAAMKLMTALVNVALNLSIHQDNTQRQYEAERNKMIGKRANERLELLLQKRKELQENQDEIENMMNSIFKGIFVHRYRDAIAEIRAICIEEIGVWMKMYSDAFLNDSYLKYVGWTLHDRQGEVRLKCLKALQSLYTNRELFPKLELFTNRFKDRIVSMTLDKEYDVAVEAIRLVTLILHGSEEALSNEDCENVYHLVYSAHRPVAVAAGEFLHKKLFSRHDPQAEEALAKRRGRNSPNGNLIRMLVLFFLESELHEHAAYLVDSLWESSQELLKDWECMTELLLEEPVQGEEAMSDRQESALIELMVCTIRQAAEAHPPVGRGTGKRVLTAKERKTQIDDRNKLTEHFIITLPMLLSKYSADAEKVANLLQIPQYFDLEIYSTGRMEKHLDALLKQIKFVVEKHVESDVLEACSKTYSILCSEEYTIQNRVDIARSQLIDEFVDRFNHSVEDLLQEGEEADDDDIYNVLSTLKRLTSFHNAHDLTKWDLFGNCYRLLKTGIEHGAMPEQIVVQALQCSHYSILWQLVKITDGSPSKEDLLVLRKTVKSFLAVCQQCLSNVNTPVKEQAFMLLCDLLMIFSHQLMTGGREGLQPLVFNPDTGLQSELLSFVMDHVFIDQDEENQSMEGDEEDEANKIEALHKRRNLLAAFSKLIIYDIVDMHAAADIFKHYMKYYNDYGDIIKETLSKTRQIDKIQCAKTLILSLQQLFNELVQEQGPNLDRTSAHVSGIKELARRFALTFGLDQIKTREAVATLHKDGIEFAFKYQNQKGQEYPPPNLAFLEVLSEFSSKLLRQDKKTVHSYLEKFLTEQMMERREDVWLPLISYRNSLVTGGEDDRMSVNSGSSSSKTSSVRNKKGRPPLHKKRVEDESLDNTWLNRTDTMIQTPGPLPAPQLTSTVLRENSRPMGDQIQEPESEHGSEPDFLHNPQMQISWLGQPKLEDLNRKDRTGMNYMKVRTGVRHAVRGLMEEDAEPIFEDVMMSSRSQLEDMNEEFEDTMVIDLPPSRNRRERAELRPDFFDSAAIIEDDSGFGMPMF
Description: AFM. As to conditions: scale: % of SA1 bound at same locations as telomeric region.

The target in series [2] is TRF1;SA1 (EMSA with TRF1) (human?;human?, UniProt P54274;Q8WVM7 1-439;1-1258, |). Briefly: EMSA. (Mobility shift assays separate free from complexed probe on a gel.)
Series [3] deals with T2, Flag-SA1 WT (UniProt Q8WVM7 1-1258).
T2 sequence: T1 sequence
Briefly: fluorescence anisotropy.

Sequence of TRF1;SA1 (EMSA with TRF1) (P54274 whole entry, one chain of several): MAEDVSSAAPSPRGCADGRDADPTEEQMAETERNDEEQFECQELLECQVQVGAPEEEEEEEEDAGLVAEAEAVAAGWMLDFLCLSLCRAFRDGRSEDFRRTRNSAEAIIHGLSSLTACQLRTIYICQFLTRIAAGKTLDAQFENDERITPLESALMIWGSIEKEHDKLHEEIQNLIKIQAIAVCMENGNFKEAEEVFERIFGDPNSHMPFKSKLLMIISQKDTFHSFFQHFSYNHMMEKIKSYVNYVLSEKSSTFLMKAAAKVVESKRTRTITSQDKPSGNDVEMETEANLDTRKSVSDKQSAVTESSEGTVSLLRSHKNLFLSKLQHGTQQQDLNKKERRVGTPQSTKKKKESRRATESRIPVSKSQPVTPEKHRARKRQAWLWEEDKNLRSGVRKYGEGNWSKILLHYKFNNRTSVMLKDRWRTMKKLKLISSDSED

In the series with Flag-SA1 WT [1], genomic control DNA displayed a binding signal of 27.

B1: 3x TTAGGG EMSA duplex (dsDNA)
DNA 1: TTAGGGTTAGGGTTAGGGATGTCCAGCAAGCCAGAATTCGGCAGCGTA
DNA 2: TACGCTGCCGAATTCTGGCTTGCTGGACATCCCTAACCCTAACCCTAA
For the molecule B1, the binding result in series [2] is “binds”.

B2: Tel7 (7 TTAGGG repeats) (dsDNA)
DNA 1: CTGGATCCGTACTTAGGGTTAGGGTTAGGGTTAGGGTTAGGGTTAGGGTTAGGGACAAGAATTCGA
DNA 2: TCGAATTCTTGTCCCTAACCCTAACCCTAACCCTAACCCTAACCCTAACCCTAAGTACGGATCCAG
Broadly, the Kd is a measure of binding affinity in units of concentration. For the molecule B2, in the series with Flag-SA1 WT [3], the Kd amounted to 34 ± 5.8 nM.

B3: Scram (scrambled Tel7) (dsDNA)
DNA 1: CTGGATCCGTACAGTGTAAGGGTGAGTGGTTGGGTGTGTGGGTGTTGATGTAGAACAAGAATTCGA
DNA 2: TCGAATTCTTGTTCTACATCAACACCCACACACCCAACCACTCACCCTTACACTGTACGGATCCAG
In the case of B3, the Kd in the series with Flag-SA1 WT [3] was determined as 104 ± 13.6 nM.

(Values after publication PMC5291270.)
